Laboratory results: patent US20240269303A1, “CELL TARGETING CONSTRUCTS AND USES THEREOF” (Research Development Foundation, priority 2022, published 2024)
Positions count from the first letter of the chain named. In names and notes the source's numbering stands. Where two headings read alike, the source gives them in different places.

Tests used:
[1] = system: OVCAR8/LGR5 cells; test: Growth rate inhibition assay (CCK8, 120 h exposure); type: cell-based, human
[2] = Plasma pharmacokinetics after IV injection (ELISA)
[3] = system: HEK293e empty vector cells versus cells overexpressing LGR5 receptors; test: FcST4-MMAE cytotoxicity assay (CCK8, day 6); type: cell-based, human; settings: batches 2-6
[4] = Stability of FcST4-MMAE (storage, low pH, freeze and thaw); type: physicochemical
Protocol: Based on the hypothesis that RSPO1 could be used to target cytotoxic drugs selectively to CSC, a compound that contained 2 binding domains and armed this with the cytotoxin monomethylaurostatin (R1FF-MMAE) was generated. Since affinity of a ligand can be affected by the number of binding sites, tests were performed to see if the potency of R1FF-MMAE could be further enhanced by increasing the number of binding domains. A vector capable of expressing a protein containing 4 modified binding domains was constructed, and the FcST4-His protein was successfully produced in transiently transfected HEK293E cells and purified using nickel and ion exchange resins. Following attaching MMAE to the polypeptide using the sortase reaction, this drug (FcST4-MMAE) was characterized using gel electrophoresis, HPLC analysis on ion exchange and size exclusion columns, Western blot, and cytotoxicity testing.
To assess the stability of the FcST4-MMAE molecule, the sample was subjected to multiple freeze and thaw cycles.

[5] = system: OVCAR8 cells expressing empty vector versus cells overexpressing LGR5 receptors; test: FcST4-MMAE cytotoxicity assay; type: cell-based, human
[6] = OVCAR8/EV and OVCAR8/LGR5, proteins produced in ExpiCHO
[7] = OVCAR8/EV vs OVCAR8/LGR5, 120 h, Fu1/Fu2 binding-disabling mutation study

B1: FcF2Δlinker-MMAE (conjugate)
chain: EPKSCDKTHTCPPCPAPELLGGPSVFLFPPKPKDTLMISRTPEVTCVVVDVSHEDPEVKFNWYVDGVEVHNAKTKPREEQYNSTYRVVSVLTVDHHDWLNGKEYKCKVSNKALPAPIEKTISKAKGQPREPQVYTLPPSRDELTKNQVSLTCLVKGFYPSDIAVEWESNGQPENNYKTTPPVLDSDGSFFLYSKLTVDKSRWQQGNVFSCSVMHEALHSHYTQKSLSLSPGKSRGIKGKRQRRISAEGSQACAKGCELCSEVNGCLKCSPKLFILLERNDIRQVGVCLPSCPPGYFDARNPDMNKCIKCKIEHCEACFSHNFCTKCKEGLYLHKGRCYPACPEGSSAANGTMECSSPLPETGGG
modifications: non-natural residues
In the case of B1, the “IC50 values or degree of selectivity compared with FcF2-MMAE” value [1, 6] is reported as “no clear differences in IC50 values or degree of selectivity” and the “potency compared with FcF2-MMAE” value [1, 6] is reported as “appeared to be less potent against both LGR5-poor and LGR5-rich cells”.

B2: FcF2-PNU159682: FcF2-His conjugated with PNU159682, an anthracycline derivative, using sortase A (conjugate)
chain: EPKSCDKTHTCPPCPAPELLGGPSVFLFPPKPKDTLMISRTPEVTCVVVDVSHEDPEVKFNWYVDGVEVHNAKTKPREEQYNSTYRVVSVLTVDHHDWLNGKEYKCKVSNKALPAPIEKTISKAKGQPREPQVYTLPPSRDELTKNQVSLTCLVKGFYPSDIAVEWESNGQPENNYKTTPPVLDSDGSFFLYSKLTVDKSRWQQGNVFSCSVMHEALHSHYTQKSLSLSPGKGGGGSGGGGSSRGIKGKRQRRISAEGSQACAKGCELCSEVNGCLKCSPKLFILLERNDIRQVGVCLPSCPPGYFDARNPDMNKCIKCKIEHCEACFSHNFCTKCKEGLYLHKGRCYPACPEGSSAANGTMECSSPGGGGSGGGGSLPET
modifications: cyclised or stapled
In the case of B2, the IC50 ratio [1] is reported as “approximately 10”.

B3: FcF2-Q71R-MMAE (conjugate)
chain: EPKSCDKTHTCPPCPAPELLGGPSVFLFPPKPKDTLMISRTPEVTCVVVDVSHEDPEVKFNWYVDGVEVHNAKTKPREEQYNSTYRVVSVLTVDHHDWLNGKEYKCKVSNKALPAPIEKTISKAKGQPREPQVYTLPPSRDELTKNQVSLTCLVKGFYPSDIAVEWESNGQPENNYKTTPPVLDSDGSFFLYSKLTVDKSRWQQGNVFSCSVMHEALHSHYTQKSLSLSPGKGGGGSGGGGSSRGIKGKRQRRISAEGSQACAKGCELCSEVNGCLKCSPKLFILLERNDIRRVGVCLPSCPPGYFDARNPDMNKCIKCKIEHCEACFSHNFCTKCKEGLYLHKGRCYPACPEGSSAANGTMECSSPGGGGSGGGGSLPETGGG
modifications: non-natural residues
Molecule B3 has an IC50 ratio [1, 7] of 5.1.

B4: FcF-Q71R-F106R-F110R-MMAE (conjugate)
chain: B3 chain with F328R, F332R
modifications: non-natural residues
With B4 the IC50 ratio [1, 7] was “selectivity was abolished”.

B5: FcF2-R28A-MMAE: FcF2-MMAE with R28A substitution in the Fu1-Fu2 region (SEQ ID NO: 98) (conjugate)
chain: B3 chain with R250A, R293Q
modifications: non-natural residues
In the case of B5, the “increase of AUC0-120 versus FcF2-MMAE (WT)” value ([2]; IV injection) is reported as 3.4 fold, the “initial half-life versus FcF2-MMAE (WT)” value ([2]; IV injection) is reported as “prolonged the initial half-life” and the “plasma concentration higher than that of FcF2-MMAE” value ([2]; early phase of the plasma decay curve) is reported as > 2 orders of magnitude. For the same molecule, the “potency and selectivity for LGR5-rich cells compared with FcF2-MMAE (WT)” value [1] was “neither the R28A nor the R30A mutation altered potency of selectivity”.

B6: FcF2-F106R-F110R-MMAE (conjugate)
chain: B3 chain with R293Q, F328R, F332R
modifications: non-natural residues
B6 showed an IC50 ratio [1, 7] of 2.1.

B7: FcF2-R30A-MMAE: FcF2-MMAE with R30A substitution in the Fu1-Fu2 region (SEQ ID NO: 102) (conjugate)
chain: B3 chain with R252A, R293Q
modifications: non-natural residues
In the case of B7, the “potency and selectivity for LGR5-rich cells compared with FcF2-MMAE (WT)” value [1] is reported as “neither the R28A nor the R30A mutation altered potency of selectivity”.

B8: FcST4-MMAE: Mutated Fc with two receptor binding domains (ST) in series per chain (4 in dimer), sortase-conjugated to MMAE (conjugate)
chain: EPKSCDKTHTCPPCPAPELLGGPSVFLFPPKPKDTLMISRTPEVTCVVVDVSHEDPEVKFNWYVDGVEVHNAKTKPREEQYNSTYRVVSVLTVDHHDWLNGKEYKCKVSNKALPAPIEKTISKAKGQPREPQVYTLPPSRDELTKNQVSLTCLVKGFYPSDIAVEWESNGQPENNYKTTPPVLDSDGSFFLYSKLTVDKSRWQQGNVFSCSVMHEALHSHYTQKSLSLSPGKGGGGSGGGGSSRGIKGKRQRRISAEGSQACAKGCELCSEVNGCLKCSPKLFILLERNDIRQVGVCLPSCPPGYFDARNPDMNKCIKCKIEHCEACFSHNFCTKCKEGLYLHKGRCYPACPEGSSAANGTMECSSPGGGGSGGGGSSRGIKGKRQRRISAEGSQACAKGCELCSEVNGCLKCSPKLFILLERNDIRQVGVCLPSCPPGYFDARNPDMNKCIKCKIEHCEACFSHNFCTKCKEGLYLHKGRCYPACPEGSSAANGTMECSSPGGGGSGGGGSLPETGGG
modifications: non-natural residues
For B8, the “difference in targeted killing, empty vector vs LGR5-overexpressing cells” value [3] was “not statistically significant”, the “stability to freeze and thaw cycles (SEC130 trace)” value ([4]; 4 cycles) was “no significant change in the SEC130 trace” and the stability ([4]; at 4° C.) was “remarkably stable”. For the same molecule, the stability ([4]; low pH of 3.0) was “remarkably stable”, the “difference in targeted killing, empty vector vs LGR5-overexpressing cells” value ([5]; OVCAR8) was “not statistically significant” and the “effect of increase in binding domains on potency” value ([5]; cytotoxicity testing) was “did not enhance potency”.
